Data from article PMC4665922, “Comparative assessment of native and heterologous 2-oxo acid decarboxylases for application in isobutanol production by Saccharomyces cerevisiae” (Biotechnology for Biofuels, 2015).

Legend:
Experiment in all cases: cells, lysate or membranes
Type in all cases: biochemical, Lactococcus lactis
[1] = substrate: CC(C)CC(=O)C(=O)O; details: cell extract of ammonium-grown cells, pH 7.0, 30 °C, 0.2 mM thiamine pyrophosphate, 5 mM MgCl2
[2] = substrate: CC(C)C(=O)C(=O)O; details: cell extract of ammonium-grown cells, pH 7.0, 30 °C, 0.2 mM thiamine pyrophosphate, 5 mM MgCl2, cooperative, Hill equation
[3] = substrate: CC[C@H](C)C(=O)C(=O)O; details: cell extract of ammonium-grown cells, pH 7.0, 30 °C, 0.2 mM thiamine pyrophosphate, 5 mM MgCl2

B1: KivD (Lactococcus lactis subsp. lactis) (protein)
chain: MYTVGDYLLDRLHELGIEEIFGVPGDYNLQFLDQIISHKDMKWVGNANELNASYMADGYARTKKAAAFLTTFGVGELSAVNGLAGSYAENLPVVEIVGSPTSKVQNEGKFVHHTLADGDFKHFMKMHEPVTAARTLLTAENATVEIDRVLSALLKERKPVYINLPVDVAAAKAEKPSLPLKKENSTSNTSDQEILNKIQESLKNAKKPIVITGHEIISFGLEKTVTQFISKTKLPITTLNFGKSSVDEALPSFLGIYNGTLSEPNLKEFVESADFILMLGVKLTDSSTGAFTHHLNENKMISLNIDEGKIFNERIQNFDFESLISSLLDLSEIEYKGKYIDKKQEDFVPSNALLSQDRLWQAVENLTQSNETIVAEQGTSFFGASSIFLKSKSHFIGQPLWGSIGYTFPAALGSQIADKESRHLLFIGDGSLQLTVQELGLAIREKINPICFIINNDGYTVEREIHGPNQSYNDIPMWNYSKLPESFGATEDRVVSKIVRTENEFVSVMKEAQADPNRMYWIELILAKEGAPKVLKKMGKLFAEQNKS
notes: full-length ORF, codon optimised, no tag mentioned; TDH3 promoter plasmid pUDE336 in S. cerevisiae IME262 (pdc1 pdc5 pdc6 aro10 deleted); cell extract
[1]
  Km: 2.42 ± 0.90 mM
  Vmax: 0.04 µmol/min/mg
  Vmax/Km: 17 µL/min/mg
[2]
  K0.5: 7.73 ± 1.62 mM
  Vmax: 0.03 µmol/min/mg
  Vmax/Km: 3.9 µL/min/mg
[3]
  Km: 12.9 ± 2.87 mM
  Vmax: 0.05 µmol/min/mg
  Vmax/Km: 3.9 µL/min/mg
